assay: soluble on expression in E. coli; label from the status in PepcDB or PDB records

| Sequence | soluble on expression in E. coli |
| --- | --- |
| MIELIDPISKQRLEESPEGLRNENGIVVYPLINGAYRVAASDNYTSNFGLEWNTFQKTQIDKFSGNTVSEERLFAQTNWQKNGLEGETILEVGSGAGRFSQIMLDHTKATLYSVDYSEAVEANYRNNGPHERFKLFQASIYELPFKQASFDRVICLGVLQHTPDFKASVKALVEMVKPGGELVIDFYPIRNVFTKVHGKYLLRPILKRVNHHRLMSLIRNNIDFLISIYTFNRRIGLGVFNRFVPICEIERTLPKGMTPEQLKEWIILDTFDMFSPEYDQPQRLSTVAKWVKEFGMADVDASWVTYHGKLEAPTVRGRKVLEHHHHHH | soluble |
| MIELKHLRTLQALRNTGSLAAAATQLHQTQSALSHQFSDLEQRLGFRLFVRKSQPLRFTTQGEILLQLAEQVLPQIKQALQTCNEPHQTALRIAIECHSCIQWLTPALDNFHKHWPQVTMDFKSGVTFDPQPALQQGELDLVLTSDILPRSGLHYSPMFDFEVRLVLAPDHPLANKDRIEPEDLAPEVLMIYPVQRQRLDVWRHFLQPAGVSPSSKNVDNTLLLIQMVSARMGIAALPHWVVESFERQGLVVTKTLGEGLWSRLYAAVRDGEQRQPVTEAFIRSARQHACDHLPFVKDAVRSNAGVPTAKPLSPQLQ | not soluble |
| MIEQCWSEIQEEQSPTSQIGQLRVQGLRDKRVIVEYIPLILKTFLLSKTSGVGPLIIPVRCFTCGKVIGDKYYEFKRRVEAGEDPEKVLDDLGLERYCCRRMLLSHVELIDDIMHYKVY | soluble |
| MIERLLEIKKIRADRADKAVQRQEYRVANVAAELQKAERSVADYHVWRQEEEERRFAKAKQQTVLLKELETLRQEIALLREREAELKQRVAEVKVTLEQERTLLKQKQQEALQAHKTKEKFVQLQQQEIAEQSRQQQYQEELEQEEFRTVDIIAAALEHHHHHH | soluble |
| MIFAYNKEHVGDVLLVIVADDQGAENQVKRVGDVARVSLVEAPETVVAWNIFNASALLGDINGTGQVTLTDEQIEKVNTAIKDAGFSETLEKDDTPKIVVGFVKSCKKHPDSDHLSITQTEVDNGEILQIVCGAPNIKAGQKVVVAKPGAMMPDGLMIWPGVLRGEESFGMICSAKELRLPNAPAKKGILELPFDAEVGSAFAVGE | not soluble |
| MIFHDVVESDLHDWECDDDYVCKFCTVRVNNWKIEIYQLWHYFFFLKDVVGVIVRKLNIAIDRDYTCEGLHVAGLIGYDYDKVEEYTGMCTICKLGDCGGMCRRVVEHCKKCGPIQEGVFETPFEKPHHFESLEITSFTIDCLLYGNRFRPTLVNFKNAPITVDSLSINAPSSGIPKVFLSAMMISKWKLLILKTCEDSPYAMEELQLSLTGKMLEEMSNNDYKVKHFRKCFPTKKMSIKILSQIENIQDIRKLCIQEKNLDLAIDIICDKSLLLKFWVSQKNTRGSFWKMKML | not soluble |
| MIFLSFKKSFKNITIEGKFTFEKGFNVILGPSGAGKSTVIKVMCGIEKPDEGFMKCCDEVFFDTKKGVFLPPQKRRLGVVFQSHNLFPHMTVRENIEFALKKAKEPQFTVEELLEKFNLKGHENKYPGELSGGQRQRVAVIRAIVFNPRAVLMDEPFSSLDFKTKLSIMEFIKSVHIEKPVIIVTHDLFEALYLGQKFFLMDNGKKVKEGGKEVLKEYVDLEKIKKFLS | soluble |
| MIFMFRKVLFPTDFSEGAYRAVEVFEKRNKMEVGEVILLHVIDEGTLEELMDGYSFFYDNAEIELKDIKEKLKEEASRKLQEKAEEVKRAFRAKNVRTIIRFGIPWDEIVKVAEEENVSLIILPSRGKLSLSHEFLGSTVMRVLRKTKKPVLIIKEVDENELAKTKGTSG | soluble |
| MIFTTQVKYTYDTLSTFPEDMPSREGFTLISDHFGAGMLAPMEVVVNSKESMKSSLENVNGVASVTGPERSKGYQKYTLILKDNPYSNEAMDVVPKVRAAADKGNDVYIAGQTATQYDDRAVTEHDEKVIIPLEHHHHHH | soluble |
| MIGGSGRFLVNLESLNGVESIGNLTKHRTAPVVLKTSTGYLVRYVPVISGEALAHAYQASLVDIAKKEGLPVGNLSSQYEFIKFSTDEALKIEGIKEPKDYNDARRFEVEVMLKDVIADVGGFMYAGSAPVRRTSRIKLGYMIPALRGDEIPAQLEAQFHVRFSNKPVKGSQAIFNVEVSSALYTFSFELDEDLIAVPSTVGEKVKGEEELERQKARRVDSAIKALYSLLAGNFGGKRSRFLPSMKLMSLVVVKTDFPFIPEPGHDDSYIKTTVMRLEKAKSVLNGNVAKVYVINNEGIEVGEGATVLSSVEDLVAKLKEK | not soluble |
| MIGPENCNSVSEPIAYVIILAGGRSSRMGYDKAQVMVDGRRLIDLCLESIASVHAHPIVVSGQDLQLTAAVTQVMEEPAFGGPVAGIAAGMRCCDTKAGLIGVIAVDAPRSGNYLNQLRRVVLTHPEVGVAHAVVEGYDQPLLAVWRYEALTQALHALGSPRNVAAKRLLRSATTPVIAVPVDSSARDYDTVAELSALGRVRLRLEHHHHHH | not soluble |
| MIGQTNLFDDVLKQDERFVIVVQALEEKNGQLLKRTLREYPGLNHKQMNDLFTHLKELFSEESFAENQSAFSITVYTNLDYTADQIYAHVKRFRGKHDWTQTAKLEHHHHHH | soluble |
| MIHAARSLAGSRAGPLLALLLLGLATARAEPVDGLPLRADGDGRWSLAAGRYAGNFVIDRPLHLRCEAGAELDGGGHGSLLTLTSPGITVEGCRLRNWGRNLTELDAAIFVGKAASGAVIRGNDLRGAGFGVWLDATVGAQVLDNRIEGDESVRSQDRGNGIHLYAVKDALVRGNRVSHTRDGVYIDTSNDSSIEANRFEELRYGVHYMFTHNSRVTDNLTRRTRTGYALMQSRKLTVTGNRSIDDENYGILMNYITYSTLAGNRVEGVRSGSTGDAMISGAEGKALFIYNSLFNRIEGNSFADSALGIHLTAGSEDNRIAGNAFIGNRQQVKYVASREQEWSADGRGNYWSDYLGWDRDDDGLGDVAYEPNDNVDRLIWLYPQVRLLLNSPSIELLRWVQRAFPVVRSPGVRDSHPLMRMPAAEPRPLEHHHHHH | not soluble |
| MIHDYHWRRGKRRKLIVMMETRMMIIMMTIKPPHDIYREQQNHHDDETKRSTKHCVTATHPWPRPAASCFRCPLRGGHHRRRPACALPHGWSVMNSCSLEHHHHHH | not soluble |
| MIHQFHSEQQFRSLGMCVVSTFGSGRACTFIGALYAIHQLNNGVEPNIFEIMKTIKQQRPGAIESFPQYSGVYAIVLDYISRKRGGKSDPVNKYINRFLADLTEILPACSTLPVMNPSTELH | not soluble |
| MIHSLFLINSSGDIFLEKHWKSVVSRSVCDYFFEAQERATEAENVPPVIPTPHHYLLSVYRHKIFFVAVIQTEVPPLFVIEFLHRVVDTFQDYFGVCSEPVIKDNVVVVYEVLEEMLDNGFPLATESNILKELIKPPTILRTVVNTITGSTNVGDQLPTGQLSVVPWRRTGVKYTNNEAYFDVVEEIDAIIDKSGSTVTAEIQGVIDACVKLTGMPDLTLSFMNPRLLDDVSFHPCVRFKRWESERILSFIPPDGNFRLLAYHVSAQNLVAIPVYVKHSISFRDSSSLGRFEITVGPKQTMGKTIEGVIVTSQMPKGVLNMSLTPSQGTHTFDPVTKMLSWDVGKINPQKLPSLKGTMGLQVGASKPDENPTINLQFKIQQLAISGLKVNRLDMYGEKYKPFKGIKYMTKAGKFQVRT | not soluble |
| MIIILRYNKQVFYKYKGDSVMRNRTSVMRKRQMQEVTAKRTKLGKIAMTQKLEATEKQFIVTQGQPCQTQLAEGKFLSYQYNDQIFVHGGRCIELVDSNIVSTAHASLLITILLEGKLSFGYDDLQFDLDASDTPQGVVVNLIHPANFRRSLIENNQINKINILVKPQWLEYRSEESCCSTAFFETHQAFYHLELNQALTELATELTNRDTPHRFQDKLEIESLIYQILFHATQQMPQDFCPQNTNSYRDK | not soluble |
| MIITDVEVRVFRTTTRRHSDSAGHAHPGPAHQVEQAMLTVRTEDGQEGHSFTAPEIVRPHVIEKFVKKVLIGEDHRDRERLWQDLAHWQRGSAAQLTDRTLAVVDCALWDLAGRSLGQPVYKLIGGYRDKVLAYGSIMCGDELEGGLATPEDYGRFAETLVKRGYKGIKLHTWMPPVSWAPDVKMDLKACAAVREAVGPDIRLMIDAFHWYSRTDALALGRGLEKLGFDWIEEPMDEQSLSSYKWLSDNLDIPVVGPESAAGKHWHRAEWIKAGACDILRTGVNDVGGITPALKTMHLAEAFGMECEVHGNTAMNLHVVAATKNCRWYERGLLHPFLEYDDGHDYLKSLSDPMDRDGFVHVPDRPGLGEDIDFTFIDNNRVR | soluble |
| MIITTSRKPSQRTRSLVNDLARVFNFKILNRGKIPLSELIENKDDMIIVEELKGNPGRLKIFNFENNKILSMNLSLKLQREVSGKAFKNSGKLGSKFDKNTEHLKEFFFEYLFKKLSNYKEENFEVVITFKTVDESTFYIEVHKGSENMGPSLKIKTVKILDIELEHHHHHH | not soluble |
| MIIVHLCGGLGNQMFQYAAGLAAAHRIGSEVKFDTHWFDATCLHQGLELRRVFGLELPEPSSKDLRKVLGACVHPAVRRLLAGHFLHGLRPKSLVIQPHFHYWTGFEHLPDNVYLEGYWQSERYFSNIADIIRQQFRFVEPLDPHNAALMDEMQSGVSVSLHIRRGDYFNNPQMRRVHGVDLSEYYPAAVATMIEKTNAERFYVFSDDPQWVLEHLKLPVSYTVVDHNRGAASYRDMQLMSACRHHIIANSTFSWWGAWLNPRPDKVVIAPRHWFNVDVFDTRDLYCPGWIVLLEHHHHHH | not soluble |
| MIKATDRKLVVGLEIGTAKVAALVGEVLPDGMVNIIGVGSCPSRGMDKGGVNDLESVVKCVQRAIDQAELMADCQISSVYLALSGKHISCQNEIGMVPISEEEVTQEDVENVVHTAKSVRVRDEHRVLHVIPQEYAIDYQEGIKNPVGLSGVRMQAKVHLITCHNDMAKNIVKAVERCGLKVDQLIFAGLAASYSVLTEDERELGVCVVDIGGGTMDIAVYTGGALRHTKVIPYAGNVVTSDIAYAFGTPPSDAEAIKVRHGCALGSIVGKDESVEVPSVGGRPPRSLQRQTLAEVIEPRYTELLNLVNEEILQLQEQLRQQGVKHHLAAGIVLTGGAAQIEGLAACAQRVFHTQVRIGAPLNITGLTDYAQEPYYSTAVGLLHYGKESHLNGEAEVEKRVTASVGSWIKRLNSWLRKEF | not soluble |
| MIKILDASAFIHGYNPSIEDGEHYTTNGIVSEVVSKEDIVKLAIEYGKLKILDPKPETIEKVVKTSIETGDTISNNDIEILALAIDLGGTLYTDDYGLQNVSKKLKINYENIVSAGSKDDFVWKKICKGCKKMYPINYLDEECEVCGSPLYRKMVKNRLKKGKKFYDKKKKPKKLFLEHHHHHH | soluble |
| MIKKAFCMQVYPDQHAEYQRRHEKLWPEMRQMLKEHGAIKYQIFLNPETSTLFGYLEIEDEARWEQIALTPINQKWWNYMEDIMETNPDCSPMTAELKKVFEL | not soluble |
| MIKLRMPAGGERYIDGKSVYKLYLMIKQHMNGKYDVIKYNWCMRVSDAAYQKRRDKYFFQKLSEKYKLKELALIFISNLVANQDAWIGDISDADALVFYREYIGRLKQIKFKFEEDIRNIYYFSKKVEVSAFKEIFEYNPKVQSSYIFKLLQSNIISFETFILLDSFLNIIDKHDEQTDNLVWNNYSIKLKAYRKILNIDSQKAKNVFIETVKSCKY | soluble |
| MIKLSNITKVFHQGTRTIQALNNVSLHVPAGQIYGVIGASGAGKSTLIRCVNLLERPTEGSVLVDGQELTTLSESELTKARRQIGMIFQHFNLLSSRTVFGNVALPLELDNTPKDEVKRRVTELLSLVGLGDKHDSYPSNLSGGQKQRVAIARALASNPKVLLCDEATSALDPATTRSILELLKDINRRLGLTILLITHEMDVVKRICDCVAVISNGELIEQDTVSEVFSHPKTPLAQKFIQSTLHLDIPEDYQERLQAEPFTDCVPMLRLEFTGQSVDAPLLSETARRFNVNNNIISAQMDYAGGVKFGIMLTEMHGTQQDTQAAIAWLQEHHVKVEVLGYV | soluble |
